Laboratory results reported in patent US20250313625A1 (ELPISCIENCE SUZHOU BIOPHARMA, published 2025).

How the values were obtained:
[1] = target: T1, human LAG3 (form used in Octet, Biacore and HDX-MS not given) (human, UniProt P18627 23-450, limits assumed); assay: BLI (Octet), 1:1 fit
T1 sequence (looked up): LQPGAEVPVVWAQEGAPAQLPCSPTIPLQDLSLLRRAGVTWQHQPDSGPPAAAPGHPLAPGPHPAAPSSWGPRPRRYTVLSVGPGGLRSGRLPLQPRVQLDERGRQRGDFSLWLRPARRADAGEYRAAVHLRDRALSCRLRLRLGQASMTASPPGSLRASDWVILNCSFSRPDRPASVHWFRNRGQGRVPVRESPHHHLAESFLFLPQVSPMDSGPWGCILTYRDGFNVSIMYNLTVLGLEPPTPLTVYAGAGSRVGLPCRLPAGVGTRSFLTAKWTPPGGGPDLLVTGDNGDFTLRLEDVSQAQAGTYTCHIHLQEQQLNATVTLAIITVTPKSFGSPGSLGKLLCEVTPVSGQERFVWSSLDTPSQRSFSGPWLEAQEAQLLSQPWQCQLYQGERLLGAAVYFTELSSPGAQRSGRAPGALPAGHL
Experimental: (§1) The association and dissociation curves were fit with 1:1 binding model, and the Ka/Kd/KD values for each antibody were calculated.
as §1

[2] = target: T2, mFc tagged human LAG3 ECD recombinant protein (human, UniProt P18627 23-450); assay: competitive FACS: mFc tagged human LAG3 ECD binding to MHC II on Raji cells
T2 construct: extracellular domain; purchased from Biointron; not shown: mouse IgG Fc (mFc) tag
T2 sequence (looked up): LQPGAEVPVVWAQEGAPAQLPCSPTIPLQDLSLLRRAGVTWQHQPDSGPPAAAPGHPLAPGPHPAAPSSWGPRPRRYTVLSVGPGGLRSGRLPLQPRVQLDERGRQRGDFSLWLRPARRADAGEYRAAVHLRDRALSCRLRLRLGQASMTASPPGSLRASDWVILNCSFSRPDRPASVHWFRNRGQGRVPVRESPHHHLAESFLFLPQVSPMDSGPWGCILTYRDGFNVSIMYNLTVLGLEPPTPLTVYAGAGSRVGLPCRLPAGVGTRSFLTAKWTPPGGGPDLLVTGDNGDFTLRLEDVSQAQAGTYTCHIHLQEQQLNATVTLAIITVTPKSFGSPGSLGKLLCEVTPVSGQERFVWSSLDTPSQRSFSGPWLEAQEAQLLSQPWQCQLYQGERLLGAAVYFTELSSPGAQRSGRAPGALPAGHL
Experimental: (§2) Activity of the purified chimeric antibodies to block LAG3 and MHC II interaction was determined by competitive FACS assay. […] After washing, dye labeled anti-mouse Fc 2nd antibody (Sigma) was added and incubated at 37° C. for 1 hour. Fluorescence intensity was detected.

[3] = target: T3, human LAG3, full length, stably expressed on cells (human, UniProt P18627 23-525); assay: FACS on 293F cells stably expressing human LAG3
T3 construct: whole, on cells; also called CHOK1-human LAG3
T3 sequence (looked up): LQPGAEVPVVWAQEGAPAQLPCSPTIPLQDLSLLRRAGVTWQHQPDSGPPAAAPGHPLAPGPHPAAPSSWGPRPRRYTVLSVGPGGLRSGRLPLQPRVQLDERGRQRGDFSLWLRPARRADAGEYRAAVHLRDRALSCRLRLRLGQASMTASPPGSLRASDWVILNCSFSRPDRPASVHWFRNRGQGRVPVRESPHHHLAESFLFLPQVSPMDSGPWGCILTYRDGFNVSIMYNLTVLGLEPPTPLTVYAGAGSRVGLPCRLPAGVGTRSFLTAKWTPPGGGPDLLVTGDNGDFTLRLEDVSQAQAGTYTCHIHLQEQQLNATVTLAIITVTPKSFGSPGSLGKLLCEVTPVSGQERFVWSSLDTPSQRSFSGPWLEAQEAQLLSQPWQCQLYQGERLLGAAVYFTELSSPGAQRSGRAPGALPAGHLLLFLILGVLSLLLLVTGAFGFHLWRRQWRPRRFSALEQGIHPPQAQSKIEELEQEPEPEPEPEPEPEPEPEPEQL
Experimental: Briefly the antibodies were incubated with 2×10⁵ target cells at 4° C. for 1 hour. After washing, fluorescence labeled anti-mouse IgG 2nd antibody (Life Technologies) was added and incubated at 4° C. for 1 hour. Geometric median fluorescence intensity (MFI) was detected and EC₅₀ was calculated using GraphPad Prism9.0.
MFI was detected and EC₅₀ was calculated using GraphPad Prism9.0.

[4] = target: T2, mFc tagged human LAG3 ECD recombinant …; assay: competitive FACS: mFc-LAG3 ECD binding to Raji cells (MHC II)
Experimental: as §2

[5] = target: T1, human LAG3 (form used in Octet, Biacore …); assay: BLI (Octet)

Binder	Kd [5]	koff [5]	kon [5]	also measured
hu029.53 (antibody, V domains shown, humanized from 029c) VH: QVQLVESGGGLVKPGGSLRLSCAASGFTFSSYAMSWIRQAPGKGLEWVAYVTSGGDYIYYADTVKGRFTISRDDAKNSLYLQMNSLRAEDTAMYYCTRVAYDYEWYFDVWGQGALVTVSS VL: DIQMTQSPSSVSASVGDRVTITCKASQDVTTAVAWYQQKPGKAPKLLIYSASYRYTGVPSRFSGSGSGTDFTLTISSLQPEDFATYYCQQHDSSPWTFGQGTKLEIK				Kd [1]: 4.94 nM; koff [1]: 0.0217 s⁻¹; kon [1]: 4.38e+06 M⁻¹ s⁻¹; %Blocking at 2 nM [2]: 21.4%; %Blocking at 4 nM [2]: 31.9%; %Blocking at 8 nM [2]: 98%
hu029.40 (antibody, V domains shown, humanized from 029c) VH: QVQLVESGGGLVKPGGSLRLSCAASGFTFSSYAMSWVRQAPGKRLEWVAYVTSGGDYIYYADTVKGRFTISRDDAKNSLYLQMNSLRAEDTAMYYCTRVAYDYEWYFDVWGQGALVTVSS VL: DIQMTQSPSSVSTSVGDRVTITCKASQDVTTAVAWYQQKPGKAPKLLIYSASYRYTGVPSRFSGSGSGTDFTFTISSVQPEDFATYYCQQHDSSPWTFGQGTKLEIK				Kd [1]: 4.79 nM; koff [1]: 0.0224 s⁻¹; kon [1]: 4.68e+06 M⁻¹ s⁻¹; %Blocking at 2 nM [2]: 19.6%; %Blocking at 4 nM [2]: 43.4%; %Blocking at 8 nM [2]: 99.1%
038c (antibody, human IgG4, V domains shown, human IgG4 S228P / kappa chimeric antibody; also called chimeric antibody 038; not shown: human kappa light chain constant region (pcDNA3.4-hIgGk vector)) VH: DVQVQESGPGLVKPSQSLSLTCSVTGYSITSGYYWNWIRQFPGNKLEWMGYISYDGSNEYNLSLKNRLSITRDTSKNQFFLKLNSVTTEDTATYYCAREEDGYYGGMDYWGQGTSVTVSS VL: DIVMTQSHKFMSASVGVRVSITCRASQDVDTAVAWYQQKPGQSPKLLIYWASTRHTGVPDRFTGSGSGTDFTLTISNVQSEDLADYFCQQYSSYPYTFGGGTKLEIK				EC50 [3]: 2.3 nM; IC50 [4]: 5.2 nM; TOP blocking (%) [4]: 98.4%
hu023.05 (antibody, human IgG4, V domains shown, humanized from 023c) VH: QVQLVQSGAEVKKPGASVKVSCKASGYTFTESPMNWVRQAPGQGFEWMGIIYTDTGEPTYAEEFKGRVTMTRDTSTSTVYMELSSLRSEDTAVYFCASDYGSILYWYFDVWGQGTLVTVSS VL: DIQMTQSPSSLSASVGDRVTITCKASQDVSTAVAWYQQKPGKSPKLLIYSASYRYTGVPSRFSGSGSGTDFTFTISSLQPEDFATYYCQQHYNAPPTFGQGTKLEIK	0.616 nM	0.000198 s⁻¹	321000 M⁻¹ s⁻¹	
hu023.06 (antibody, human IgG4, V domains shown, humanized from 023c) VH: QVQLVQSGAEVKKPGASVKVSCKASGYTFTESPMNWVRQAPGQGFEWMGIIYTDTGEPTYAEEFKGRVTMTRDTSTSTVYMELSSLRSEDTAVYFCASDYGSILYWYFDVWGQGTLVTVSS VL: DIQMTQSPSSLSTSVGDRVTITCKASQDVSTAVAWYQQKPGKSPKLLIYSASYRYTGVPSRFSGSGSGTDFTFTISSVQPEDFATYYCQQHYNAPPTFGQGTKLEIK	0.657 nM	0.000161 s⁻¹	246000 M⁻¹ s⁻¹	
hu023.08 (antibody, human IgG4, V domains shown, humanized from 023c) VH: QVQLVQSGPEVKKPGASVKVSCKASGYTFTESPMNWVRQAPGQGFEWMGIIYTDTGEPTYAEEFKGRVTMTLDTSTSTVYMELSSLRSEDTAVYFCASDYGSILYWYFDVWGQGTLVTVSS VL: DIQMTQSPSSLSASVGDRVTITCKASQDVSTAVAWYQQKPGKSPKLLIYSASYRYTGVPSRFSGSGSGTDFTFTISSLQPEDFATYYCQQHYNAPPTFGQGTKLEIK	0.689 nM	0.000219 s⁻¹	318000 M⁻¹ s⁻¹	
hu023.09 (antibody, human IgG4, V domains shown, humanized from 023c) VH: QVQLVQSGPEVKKPGASVKVSCKASGYTFTESPMNWVRQAPGQGFEWMGIIYTDTGEPTYAEEFKGRVTMTLDTSTSTVYMELSSLRSEDTAVYFCASDYGSILYWYFDVWGQGTLVTVSS VL: DIQMTQSPSSLSTSVGDRVTITCKASQDVSTAVAWYQQKPGKSPKLLIYSASYRYTGVPSRFSGSGSGTDFTFTISSVQPEDFATYYCQQHYNAPPTFGQGTKLEIK	0.704 nM	0.000204 s⁻¹	290000 M⁻¹ s⁻¹	
hu023.12 (antibody, human IgG4, V domains shown, humanized from 023c) VH: QVQLVQSGPELKKPGASVKVSCKASGYTFTESPMNWVRQAPGQGFEWMGIIYTDTGEPTYAEEFKGRFVFSLDTSVSTAYLQISSLKAEDTAVYFCVSDYGSILYWYFDVWGQGTLVTVSS VL: DIQMTQSPSSLSTSVGDRVTITCKASQDVSTAVAWYQQKPGKSPKLLIYSASYRYTGVPSRFSGSGSGTDFTFTISSVQPEDFATYYCQQHYNAPPTFGQGTKLEIK	0.189 nM	5.58e-05 s⁻¹	296000 M⁻¹ s⁻¹	
hu023.14 (antibody, human IgG4, V domains shown, humanized from 023c) VH: QIQLVQSGPELKKPGASVKISCKASGYTFTESPMNWVRQAPGQGFEWMGIIYTDTGEPTYAEEFKGRFVFSLDTSVSTAYLQISSLKAEDTAVYFCVSDYGSILYWYFDVWGQGTLVTVSS VL: DIQMTQSPSSLSASVGDRVTITCKASQDVSTAVAWYQQKPGKSPKLLIYSASYRYTGVPSRFSGSGSGTDFTFTISSLQPEDFATYYCQQHYNAPPTFGQGTKLEIK	0.24 nM	7.72e-05 s⁻¹	322000 M⁻¹ s⁻¹	
